# T1: PUF4 RNA-binding domain (Saccharomyces cerevisiae, UniProt P25339 537-888)
# T1 sequence: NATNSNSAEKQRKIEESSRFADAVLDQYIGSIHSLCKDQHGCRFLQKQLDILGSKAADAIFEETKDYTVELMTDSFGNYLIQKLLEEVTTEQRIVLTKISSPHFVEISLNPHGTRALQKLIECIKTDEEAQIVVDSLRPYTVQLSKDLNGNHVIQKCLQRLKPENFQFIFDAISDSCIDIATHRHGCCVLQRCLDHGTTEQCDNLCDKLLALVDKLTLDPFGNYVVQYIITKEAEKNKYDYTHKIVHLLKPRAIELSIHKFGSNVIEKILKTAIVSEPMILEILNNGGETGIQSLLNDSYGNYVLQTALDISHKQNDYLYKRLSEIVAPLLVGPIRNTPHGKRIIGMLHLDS
# Target: T1, PUF4 RNA-binding domain
# Test: Mg; RNA-MaP; 20 mM Na-HEPES pH 7.4, 30 mM KOAc, 0.75 mM MgCl2, 0.1% Tween-20, 5% glycerol, 0.1 mg/mL BSA, 2 mM DTT; 25 C; 0.0125-409.6 nM protein
# Conditions: tags: N-His6-TEV cleaved; C-SNAP kept, Cy3B-labelled; label: tethered on chip by stalled RNA polymerase
row,Binder,Kd [nM]
1,UCUCUUCCUGUAUUAUUAAAUCUCUU (ssRNA) [Id_ii_S1_P5E.2_K5.1_C5.2_[T-1C]_H5.1_A5.1_F5.1_T5.2_[T11A]],18.8
2,UCUCUUCAUGUAUUAUUAGCUCUCUU (ssRNA) [Id_ii_S1_P5E.2_K5.1_C5.2_[T-1A]_H5.1_A5.1_F5.1_T5.2_[T11G]_[A12C]],3.39
3,UCUCUUCAUGUAUUAUUAUCUCUCUU (ssRNA) [Id_ii_S1_P5E.2_K5.1_C5.2_[T-1A]_H5.1_A5.1_F5.1_T5.2_[A12C]],7.59
4,UCUCUUUUUGUAUUAUUAAAUCUCUU (ssRNA) [Id_ii_S1_P5E.2_K5.1_C5.2_[C-2T]_H5.1_A5.1_F5.1_T5.2_[T11A]],16.4
5,UCUCUUAUUGUAUUAUUAAAUCUCUU (ssRNA) [Id_ii_S1_P5E.2_K5.1_C5.2_[C-2A]_H5.1_A5.1_F5.1_T5.2_[T11A]],13.4
6,UCUCUUUUUGUAUUAUUAUGUCUCUU (ssRNA) [Id_ii_S1_P5E.2_K5.1_C5.2_[C-2T]_H5.1_A5.1_F5.1_T5.2_[A12G]],7.22
7,UCUCUUUCUGUAUUAUUAUGUCUCUU (ssRNA) [Id_ii_S1_P5E.2_K5.1_C5.2_[C-2T]_[T-1C]_H5.1_A5.1_F5.1_T5.2_[A12G]],5.28
8,UCUCUUUUUGUAUUAUUAACUCUCUU (ssRNA) [Id_ii_S1_P5E.2_K5.1_C5.2_[C-2T]_H5.1_A5.1_F5.1_T5.2_[T11A]_[A12C]],8.08
9,UCUCUUUUUGUAUUAUUAUUUCUCUU (ssRNA) [Id_ii_S1_P5E.2_K5.1_C5.2_[C-2T]_H5.1_A5.1_F5.1_T5.2_[A12T]],10.2
10,UCUCUUACUGUAUUAUUAUCUCUCUU (ssRNA) [Id_ii_S1_P5E.2_K5.1_C5.2_[C-2A]_[T-1C]_H5.1_A5.1_F5.1_T5.2_[A12C]],9.38
11,UCUCUUAUUGUAUUAUUAGCUCUCUU (ssRNA) [Id_ii_S1_P5E.2_K5.1_C5.2_[C-2A]_H5.1_A5.1_F5.1_T5.2_[T11G]_[A12C]],4.53
12,UCUCUUACUGUAUUAUUAUUUCUCUU (ssRNA) [Id_ii_S1_P5E.2_K5.1_C5.2_[C-2A]_[T-1C]_H5.1_A5.1_F5.1_T5.2_[A12T]],8.56
13,UCUCUUUAUGUAUUAUUAUCUCUCUU (ssRNA) [Id_ii_S1_P5E.2_K5.1_C5.2_[C-2T]_[T-1A]_H5.1_A5.1_F5.1_T5.2_[A12C]],8.06
14,UCUCUUUCUGUAUUAUUAUUUCUCUU (ssRNA) [Id_ii_S1_P5E.2_K5.1_C5.2_[C-2T]_[T-1C]_H5.1_A5.1_F5.1_T5.2_[A12T]],5.27
15,UCUCUUUGUAAAGUAUCUCUU (ssRNA) [Ic_S1_P4E.1_K4.1_C4.1_H4.1_A4.1_[T5A]_[T7G]_F4.1_T4.1],7.21
16,UCUCUUUAUGUAUUAUUAGUUCUCUU (ssRNA) [Id_ii_S1_P5E.2_K5.1_C5.2_[C-2T]_[T-1A]_H5.1_A5.1_F5.1_T5.2_[T11G]_[A12T]],4.38

row,Binder,Kd [nM]
1,UCUCUUUUUGUAUUAUUAUCUCUCUU (ssRNA) [Id_ii_S1_P5E.2_K5.1_C5.2_[C-2T]_H5.1_A5.1_F5.1_T5.2_[A12C]],5.34
2,UCUCUUUGUAAACUAUCUCUU (ssRNA) [Ic_S1_P4E.1_K4.1_C4.1_H4.1_A4.1_[T5A]_[T7C]_F4.1_T4.1],2.01
3,UCUCUUAUUGUAUUAUUAUGUCUCUU (ssRNA) [Id_ii_S1_P5E.2_K5.1_C5.2_[C-2A]_H5.1_A5.1_F5.1_T5.2_[A12G]],10.1
4,UCUCUUUAUGUAUUAUUAGCUCUCUU (ssRNA) [Id_ii_S1_P5E.2_K5.1_C5.2_[C-2T]_[T-1A]_H5.1_A5.1_F5.1_T5.2_[T11G]_[A12C]],4.56
5,UCUCUUCGUGUAUUAUUAAAUCUCUU (ssRNA) [Id_ii_S1_P5E.2_K5.1_C5.2_[T-1G]_H5.1_A5.1_F5.1_T5.2_[T11A]],15
6,UCUCUUCAUGUAUUAUUAAUUCUCUU (ssRNA) [Id_ii_S1_P5E.2_K5.1_C5.2_[T-1A]_H5.1_A5.1_F5.1_T5.2_[T11A]_[A12T]],7.68
7,UCUCUUUGUGUAUUAUUAUCUCUCUU (ssRNA) [Id_ii_S1_P5E.2_K5.1_C5.2_[C-2T]_[T-1G]_H5.1_A5.1_F5.1_T5.2_[A12C]],3.72
8,UCUCUUCCUGUAUUAUUAUCUCUCUU (ssRNA) [Id_ii_S1_P5E.2_K5.1_C5.2_[T-1C]_H5.1_A5.1_F5.1_T5.2_[A12C]],6.56
9,UCUCUUAUUGUAUUAUUAUUUCUCUU (ssRNA) [Id_ii_S1_P5E.2_K5.1_C5.2_[C-2A]_H5.1_A5.1_F5.1_T5.2_[A12T]],5.93
10,UCUCUUCUUGUAUUAUUAGCUCUCUU (ssRNA) [Id_ii_S1_P5E.2_K5.1_C5.2_H5.1_A5.1_F5.1_T5.2_[T11G]_[A12C]],2.47
11,UCUCUUCGUGUAUUAUUAAUUCUCUU (ssRNA) [Id_ii_S1_P5E.2_K5.1_C5.2_[T-1G]_H5.1_A5.1_F5.1_T5.2_[T11A]_[A12T]],10.1
12,UCUCUUUCUGUAUUAUUAUCUCUCUU (ssRNA) [Id_ii_S1_P5E.2_K5.1_C5.2_[C-2T]_[T-1C]_H5.1_A5.1_F5.1_T5.2_[A12C]],4.88
13,UCUCUUUCUGUAUUAUUAAGUCUCUU (ssRNA) [Id_ii_S1_P5E.2_K5.1_C5.2_[C-2T]_[T-1C]_H5.1_A5.1_F5.1_T5.2_[T11A]_[A12G]],11.5
14,UCUCUUCGUGUAUUAUUAAGUCUCUU (ssRNA) [Id_ii_S1_P5E.2_K5.1_C5.2_[T-1G]_H5.1_A5.1_F5.1_T5.2_[T11A]_[A12G]],14.8
15,UCUCUUUGUAAAAUAUCUCUU (ssRNA) [Ic_S1_P4E.1_K4.1_C4.1_H4.1_A4.1_[T5A]_[T7A]_F4.1_T4.1],3.38

# Source: PMC9352680, “A comprehensive thermodynamic model for RNA binding by the Saccharomyces cerevisiae Pumilio protein PUF4”
